Literature values, collected in PMC5735807.

Key:
[1] = target: Fas (Homo sapiens) (UniProt P25445)
[2] = target: CD36 (Homo sapiens) (UniProt P16671)
Sequence of CD36 (Homo sapiens) (P16671 2-472): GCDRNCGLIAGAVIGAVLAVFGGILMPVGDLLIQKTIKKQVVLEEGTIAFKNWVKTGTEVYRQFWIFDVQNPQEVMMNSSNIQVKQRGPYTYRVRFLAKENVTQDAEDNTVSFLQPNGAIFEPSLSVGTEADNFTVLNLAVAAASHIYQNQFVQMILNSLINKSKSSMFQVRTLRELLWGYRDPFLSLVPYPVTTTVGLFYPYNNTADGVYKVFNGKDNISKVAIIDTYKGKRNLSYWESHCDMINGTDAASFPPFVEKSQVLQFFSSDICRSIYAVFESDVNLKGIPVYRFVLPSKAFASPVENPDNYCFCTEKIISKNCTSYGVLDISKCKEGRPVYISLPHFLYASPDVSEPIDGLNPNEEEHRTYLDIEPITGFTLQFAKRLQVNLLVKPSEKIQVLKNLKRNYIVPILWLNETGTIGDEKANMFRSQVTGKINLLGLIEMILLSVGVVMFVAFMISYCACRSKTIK

Sequence of FasL (P48023 1-81): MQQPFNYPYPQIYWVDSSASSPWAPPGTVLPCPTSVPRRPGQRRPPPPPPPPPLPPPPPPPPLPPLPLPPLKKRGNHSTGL
Sequence of TSP1 (P07996 19-1170): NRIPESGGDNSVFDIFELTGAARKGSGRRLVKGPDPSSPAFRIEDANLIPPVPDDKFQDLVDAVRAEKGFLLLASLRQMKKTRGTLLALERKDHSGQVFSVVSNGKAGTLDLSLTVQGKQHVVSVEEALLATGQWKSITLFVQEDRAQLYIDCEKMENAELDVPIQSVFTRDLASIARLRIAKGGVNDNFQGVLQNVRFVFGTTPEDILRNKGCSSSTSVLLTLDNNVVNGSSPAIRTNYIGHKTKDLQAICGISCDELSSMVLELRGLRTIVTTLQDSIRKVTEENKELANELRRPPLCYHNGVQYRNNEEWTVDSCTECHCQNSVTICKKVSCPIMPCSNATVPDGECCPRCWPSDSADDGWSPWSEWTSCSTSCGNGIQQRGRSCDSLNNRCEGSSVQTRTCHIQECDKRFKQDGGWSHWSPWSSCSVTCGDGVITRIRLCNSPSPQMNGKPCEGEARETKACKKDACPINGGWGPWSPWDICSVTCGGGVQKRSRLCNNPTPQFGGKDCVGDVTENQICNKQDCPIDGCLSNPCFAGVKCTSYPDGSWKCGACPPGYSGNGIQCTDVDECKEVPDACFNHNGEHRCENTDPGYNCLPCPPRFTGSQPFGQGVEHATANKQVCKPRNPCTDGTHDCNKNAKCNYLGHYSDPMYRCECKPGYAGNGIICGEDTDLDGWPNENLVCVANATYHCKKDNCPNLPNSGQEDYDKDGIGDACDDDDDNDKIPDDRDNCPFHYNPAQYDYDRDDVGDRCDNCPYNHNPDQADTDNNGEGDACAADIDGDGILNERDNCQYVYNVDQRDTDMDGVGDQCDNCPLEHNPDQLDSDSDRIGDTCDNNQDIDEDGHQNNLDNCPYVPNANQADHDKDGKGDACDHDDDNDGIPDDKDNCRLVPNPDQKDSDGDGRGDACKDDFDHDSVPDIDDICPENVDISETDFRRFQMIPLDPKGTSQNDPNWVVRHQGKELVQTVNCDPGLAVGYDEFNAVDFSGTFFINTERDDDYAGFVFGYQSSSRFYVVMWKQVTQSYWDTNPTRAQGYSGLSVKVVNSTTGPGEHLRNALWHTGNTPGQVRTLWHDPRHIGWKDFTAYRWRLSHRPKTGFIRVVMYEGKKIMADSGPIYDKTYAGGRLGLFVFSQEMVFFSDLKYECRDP
Sequence of Fas (Homo sapiens) (P25445 26-335): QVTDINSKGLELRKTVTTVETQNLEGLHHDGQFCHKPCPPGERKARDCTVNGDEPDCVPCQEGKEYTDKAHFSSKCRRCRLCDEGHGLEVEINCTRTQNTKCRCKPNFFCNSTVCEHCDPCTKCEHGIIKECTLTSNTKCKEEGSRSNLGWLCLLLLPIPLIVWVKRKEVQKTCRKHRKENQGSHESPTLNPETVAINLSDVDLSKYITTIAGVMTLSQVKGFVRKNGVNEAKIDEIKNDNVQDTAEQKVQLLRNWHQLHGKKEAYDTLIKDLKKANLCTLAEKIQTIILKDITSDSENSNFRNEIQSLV

Row | Kd [1] [nM] | Kd [2] [nM] | Substance
1 | 0.4 | – | FasL (from UniProt P48023)
2 | – | 230 | TSP1 (from UniProt P07996)
